Assay results from patent publication US9777041B2, “Protein nanofibers from self-assembling pentamers” (New York University, priority 2013, dated 2017).
Values joined by “and” are separate entries in the source; they are usually repeats but may differ in a detail not shown here. Equal values may be shown once.

Key:
[1] = Zeta potential; assay type: physicochemical; details: 10 μM protein, pH 4
Procedure: Zeta potential: Zeta potential measurements were performed on a Zetasizer Nano Series model Nano Z590. 50 mM phosphate buffer at pH 4 was used to saturate the clear polycarbonate disposable zeta cell DTS1060C prior to injecting 750 μL protein samples at protein concentrations of 10 μM. The following settings were used for zeta potential measurements in the DTS (Nano) software: […] instrument settings, Smoluvchoski model, material protein, dispersant PBS, temperature of 25° C., viscosity 1.0200 cP, and dielectric constant of […]. Measurements were taken in triplicates, conducting 10 runs for each measurement, with a delay time of 2 seconds between each measurement.

[2] = Confocal microscopy of protein fibers in the presence of curcumin; assay type: physicochemical
Procedure: FIGS. 7a-7c show confocal microscopy of CC, Q54, and COMPcc^S wt, in the presence of curcumin. The mixture of protein to curcumin were all at a ratio of 1:5. […] All different proteins are in 50 mM phosphate buffer, pH 4. Protein and curcumin samples were combined and incubated for 12 hours prior to imaging. […] The width of COMPcc^S wt shown in FIG. 7c was determined to be 12.72 μm. […] Overall, Q54 fibers appeared to be more uniform in width, as well as more robust and consistent in fiber formation.
Confocal microscopy: Samples were imaged using a Leica TCS SP2 AOBS confocal microscope system equipped with argon ion and HeNe lasers. A 63×/1.4 NA oil-immersion objective was used for all of the images. Lab-Tek II chambered #1.5 German coverglass system was used as the imaging slide. Curcumin was excited using the 458 nm line of the argon laser, and images were taken with the detection window set between 465 and 560 nm. The pinhole aperture was set at an Airy value of 1.0, which was equivalent to sampling an ˜500 nm vertical z slice of the fiber, as estimated by the axial resolution, rz,confocal≈1.4λcm n/NA^2 (NA, numerical aperture; n, refractive index; λcm, emission wavelength (525 nm)). Interference contrast images were obtained using the Leica tube optics HC 1×/B apparatus with a focusing Bertrand lens. The 3D reconstructions were constructed using ImageJ 64 1.43 in concert with Amira 5.43, employing the Volren 3D rendering routine.

[3] = Curcumin binding fluorescence; details: in the presence of Zn^2+
Text: FIG. 40. Fluorescence of C and Q or with incorporated trifluoroleucine/TFL (C TFL and Q TFL) in the presence of no metal, Ni (II), or Zn (II) and curcumin. An increase in fluorescence indicates structural stability of the protein as it is able to bind with curcumin, the fluorescent probe in this case.

For “Q: Q54 protein, SEQ ID NO:2, variant of COMPcc; coiled-coil that self-assembles into homopentamers and nanofibers (MRGSHHHHHHGSIEGRVKEITFLKNTAPQMLRELQETNAALQDVRELLRQQSKL)”, which zeta potential ([1]; absence of curcumin) is on record?
The zeta potential was 19.1±2.5 mV.

What about the “zeta potential, maximum value” ([1]; curcumin concentration of 40 μM) of the same substance?
Its value is 25.2±0.8 mV.

And the microfiber diameter ([2]; in the presence of curcumin (10 μM Q, 50 μM curcumin), pH 4)?
The microfiber diameter was 16 μm and 16.0±5.6 μm.

And the “average width of protein fibers” value ([2]; protein:curcumin 1:5, 20 mM protein, 100 mM curcumin, 50 mM phosphate buffer pH 4, 12 hours)?
The value was 16.87±9 μm.

And the “binding to small molecule (curcumin fluorescence)” value [3]?
Its value is “substantially increase the binding to small molecule”.
